Source: US20210380703A1 (RIGEL PHARMACEUTICALS, published 2021)

Experiments:
Mouse ACVR2A = Mouse ACVR2A (mouse, UniProt P27038 20-135, limits assumed); experiment: ELISA
Summary of the method: (§1)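 mAb binding by ELISA; antigens: hu ACVR2A, mu ACVR2A; pos ctrl biotinylated goat anti-hu kappa LC; neg ctrl hu Fc.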

Human ACVR2A = target: T1, Human ACVR2A (human, UniProt P27037 20-135, limits assumed); experiment: ELISA
T1 construct: also called activin receptor, type II A
Summary of the method: as §1

Goat anti-Human Kappa = target: T2, Goat anti-Human Kappa; experiment: ELISA, positive control
T2 construct: Positive control of the ELISA; also called biotinylated goat anti-human kappa light chain
Summary of the method: as §1
Also: test concentration or dose not given here.

Chain of Mouse ACVR2A (P27038 20-135 limits assumed): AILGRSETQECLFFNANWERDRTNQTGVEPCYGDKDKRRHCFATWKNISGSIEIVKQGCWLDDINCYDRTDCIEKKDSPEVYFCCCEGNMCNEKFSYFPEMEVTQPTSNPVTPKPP
T1 sequence (P27037 20-135 limits assumed): as the sequence (P27038 20-135 limits assumed) above, with R20K, I73V counted along it

optical density (Mouse ACVR2A) [OD] | optical density (Human ACVR2A) [OD] | optical density (Goat anti-Human Kappa) [OD] | Binder
3.52 | 3.6 | 3.54 | 369_C02 (antibody, V domains shown) VH: EVQLLESGGGLVQPGGSLRLSCAASGFTFDSYSMNWVRQAPGKGLEWVSNINYNGGYKSYADSVKGRFTISRDNSKNTLYLQMNSLRAEDTAVYYCARSANWHDTALDYWGQGTLVTVSS VL: DIQMTQSPSSLSASVGDRVTITCRASQSILTYLNWYQQKPGKAPKLVIYAATSRASGVPSRFSGSGSGTDFTLTISSLQPEDFATYYCQQSYELPLTFGGGTKVEIK
3.46 | 3.36 | 3.59 | 369_B01 (antibody, V domains shown) VH: EVQLLESGGGLVQPGGSLRLSCAASGFTFSSYSMNWVRQAPGKGLEWVSGINYNGGYTSYADSVKGRFTISRDNSKNTLYLQMNSLRAEDTAVYYCARSANWHDTALDYWGQGTLVTVSS VL: DIQMTQSPSSLSASVGDRVTITCRASQSILSYLNWYQQKPGKAPKLLIYAVTSRASGVPSRFSGSGSGTDFTLTISSLQPEDFATYYCQQSYENPLTFGGGTKVEIK
1.65 | 1.64 | 2.46 | 369_C04 (antibody, V domains shown) VH: EVQLLESGGGLVQPGGSLRLSCAASGFTFSSYSMNWVRQAPGKGLEWVSNINYNGGYTGYADSVKGRFTISRDNSKNTLYLQMNSLRAEDTAVYYCARSANWHDTALDYWGQGTLVTVSS VL: DIQMTQSPSSLSASVGDRVTITCRASQSILTYVNWYQQKPGKAPKLLIYTTTSLHSGVPSRFSGSGSGTDFTLTISSLQPEDFATYYCQQSYNNPLTFGGGTKVEIK
3.1 | 3.04 | 3.53 | 369_D12 (antibody, V domains shown) VH: EVQLLESGGGLVQPGGSLRLSCAASGFTFDSYSMNWVRQAPGKGLEWVAGINYNSGYTSYADSVKGRFTISRDNSKNTLYLQMNSLRAEDTAVYYCARSANWHDTALDYWGQGTLVTVSS VL: DIQMTQSPSSLSASVGDRVTITCRASQSILSYLNWYQQKPGKAPKLLIYAATSLASGVPSRFSGSGSGTDFTLTISSLQPEDFATYYCQQSYDTPLTFGGGTKVEIK
2.69 | 2.46 | 3.67 | 369_E12 (antibody, V domains shown) VH: EVQLLESGGGLVQPGGSLRLSCAASGFTFSSYGMHWVRQAPGKGLEWVASINYNSGYTSYADSVKGRFTISRDNSKNTLYLQMNSLRAEDTAVYYCARSANWHDTALDYWGQGTLVTVSS VL: DIQMTQSPSSLSASVGDRVTITCRASQSIISYLNWYQQKPGKAPKLLIYAATSRASGVPSRFSGSGSGTDFTLTISSLQPEDFATYYCQQSYESPLTFGGGTKVEIK
2.34 | 2.14 | 3.43 | 369_E02 (antibody, V domains shown) VH: EVQLLESGGGLVQPGGSLRLSCAASGFTFDSYGMNWVRQAPGKGLEWVSNINYNGGYTGYADSVKGRFTISRDNSKNTLYLQMNSLRAEDTAVYYCARSANWHDTALDYWGQGTLVTVSS VL: DIQMTQSPSSLSASVGDRVTITCRASQSIVSYVNWYQQKPGKAPKLLIYATTSRHSGVPSRFSGSGSGTDFTLTISSLQPEDFATYYCQQSYDNPLTFGGGTKVEIK

Continued, binder first:

Binder | optical density (Mouse ACVR2A) [OD] | optical density (Human ACVR2A) [OD] | optical density (Goat anti-Human Kappa) [OD]
368_H04 (antibody, V domains shown) VH: EVQLLESGGGLVQPGGSLRLSCAASGFTFSSYSMNWVRQAPGKGLEWVAGINYNSGYKGYADSVKGRFTISRDNSKNTLYLQMNSLRAEDTAVYYCAKSANWHDTHLDYWGQGTLVTVSS VL: DIQMTQSPSSLSASVGDRVTITCRASQSIVSYVNWYQQKPGKAPKLLIYAATSRASGVPSRFSGSGSGTDFTLTISSLQPEDFATYYCQQSYDSPLTFGGGTKVEIK | 1.36 | 1.06 | 3.51
369_D01 (antibody, V domains shown) VH: EVQLLESGGGLVQPGGSLRLSCAASGFTFSDYGMNWVRQAPGKGLEWVASINYNGGYTGYADSVKGRFTISRDNSKNTLYLQMNSLRAEDTAVYYCARSANWHDTALDYWGQGTLVTVSS VL: DIQMTQSPSSLSASVGDRVTITCRASQSILTYLNWYQQKPGKAPKLLIYAATSRASGVPSRFSGSGSGTDFTLTISSLQPEDFATYYCQQSYSNPLTFGGGTKVEIK | 3.32 | 3.13 | 3.63
369_C03 (antibody, V domains shown) VH: EVQLLESGGGLVQPGGSLRLSCAASGFTFSSYGMNWVRQAPGKGLEWVSNINYNGGYKSYADSVKGRFTISRDNSKNTLYLQMNSLRAEDTAVYYCARSANWHDTALDYWGQGTLVTVSS VL: DIQMTQSPSSLSASVGDRVTITCRASQSILTYLNWYQQKPGKAPKLVIYAATSRASGVPSRFSGSGSGTDFTLTISSLQPEDFATYYCQQSYDSPLTFGGGTKVEIK | 3.65 | 3.37 | 3.52
369_D04 (antibody, V domains shown) VH: EVQLLESGGGLVQPGGSLRLSCAASGFTFDSYGMNWVRQAPGKGLEWVSGINYNGGYTSYADSVKGRFTISRDNSKNTLYLQMNSLRAEDTAVYYCARSANWHDTALDYWGQGTLVTVSS VL: DIQMTQSPSSLSASVGDRVTITCRASQSILSYVNWYQQKPGKAPKLVIYAATSRASGVPSRFSGSGSGTDFTLTISSLQPEDFATYYCQQSYNLPLTFGGGTKVEIK | 2.97 | 3.05 | 3.59
369_D02 (antibody, V domains shown) VH: EVQLLESGGGLVQPGGSLRLSCAASGFTFSDYSMNWVRQAPGKGLEWVSNINYNSGYTGYADSVKGRFTISRDNSKNTLYLQMNSLRAEDTAVYYCARSANWHDTALDYWGQGTLVTVSS VL: DIQMTQSPSSLSASVGDRVTITCRASQSILSYLNWYQQKPGKAPKLVIYAVTSRASGVPSRFSGSGSGTDFTLTISSLQPEDFATYYCQQSYDTPLTFGGGTKVEIK | 3.44 | 3.29 | 3.53
369_E11 (antibody, V domains shown) VH: EVQLLESGGGLVQPGGSLRLSCAASGFTFSSYGMNWVRQAPGKGLEWVSNINYNGGYTSYADSVKGRFTISRDNSKNTLYLQMNSLRAEDTAVYYCARSANWHDTALDYWGQGTLVTVSS VL: DIQMTQSPSSLSASVGDRVTITCRASQSIISYLNWYQQKPGKAPKLLIYAATSLASGVPSRFSGSGSGTDFTLTISSLQPEDFATYYCQQSYDTPLTFGGGTKVEIK | 3.2 | 2.89 | 3.69
369_A02 (antibody, V domains shown) VH: EVQLLESGGGLVQPGGSLRLSCAASGFTFSSYSMNWVRQAPGKGLEWVAGINYNSGYTGYADSVKGRFTISRDNSKNTLYLQMNSLRAEDTAVYYCARSANWHDTHLDYWGQGTLVTVSS VL: DIQMTQSPSSLSASVGDRVTITCRASQSILSYVNWYQQKPGKAPKLLIYAATSRASGVPSRFSGSGSGTDFTLTISSLQPEDFATYYCQQSYDLPLTFGGGTKVEIK | 3.46 | 3.15 | 3.49
369_F01 (antibody, V domains shown) VH: EVQLLESGGGLVQPGGSLRLSCAASGFTFSSYGMNWVRQAPGKGLEWVSGINYNGGYKSYADSVKGRFTISRDNSKNTLYLQMNSLRAEDTAVYYCARSANWHDTALDYWGQGTLVTVSS VL: DIQMTQSPSSLSASVGDRVTITCRASQSILTYVNWYQQKPGKAPKLLIYAATSRASGVPSRFSGSGSGTDFTLTISSLQPEDFATYYCQQSYELPLTFGGGTKVEIK | 3.42 | 3.28 | 3.47
